This is an account of results in patent US20190225669A1 (ACCELERON PHARMA, published 2019).

B1: ALK3-Fc homodimer (Fc fusion, UniProt P36894 24-152, looked up, not shown: a dimerising Fc or GST)
chain: QNLDSMLHGTGMKSDSDQKKSENGVTLAPEDTLPFLKCYCSGHCPDDAINNTCITNGHCFAIIEEDDQGETTLASGCMKYEGSDFQCKDSPKAQLRRTIECCRTNLCNQYLQPTLPPVVIGPFFDGSIR
notes: extracellular domain

Holding throughout (test): Biacore SPR
A general note: SPR reads the build-up and loss of mass on a sensor chip optically.

Assay [1] addresses T1, BMP6 (UniProt P22004 382-513, limits assumed).
T1 sequence (looked up): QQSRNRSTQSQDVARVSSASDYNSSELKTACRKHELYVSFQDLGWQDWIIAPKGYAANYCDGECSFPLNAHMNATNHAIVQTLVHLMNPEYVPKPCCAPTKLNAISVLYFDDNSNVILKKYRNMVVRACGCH
As to the method: (§1) Ligands were injected and allowed to flow over the captured receptor protein.

The target of assay [2] is T2, BMP5 (UniProt P22003 317-454, limits assumed).
T2 sequence (looked up): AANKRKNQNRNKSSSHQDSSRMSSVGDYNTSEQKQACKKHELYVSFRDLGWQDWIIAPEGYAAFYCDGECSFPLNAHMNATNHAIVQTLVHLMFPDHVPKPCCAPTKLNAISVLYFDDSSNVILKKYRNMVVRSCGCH
As to the method: as §1

In assay [3] the target is T1, BMP6. As to the method: as §1
This is another data set of the same source.

The target of assay [4] is T2, BMP5. As to the method:
as §1
This is another data set of the same source.

Assay [5] addresses T3, ActRIIB-Fc homodimer (UniProt Q13705 19-137).
T3 construct: extracellular domain; also called ActRIIB homodimer
T3 sequence (looked up): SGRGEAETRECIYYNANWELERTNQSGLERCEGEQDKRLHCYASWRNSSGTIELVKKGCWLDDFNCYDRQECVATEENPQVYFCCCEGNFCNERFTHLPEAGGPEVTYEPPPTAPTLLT
As to the method:
as §1

In another assay the target is T4, ActRIIA-Fc homodimer (UniProt P27037 20-135).
T4 construct: extracellular domain
As to the method:
as §1

The target of assay [6] is T3, ActRIIB-Fc homodimer. As to the method:
as §1
This is another data set of the same source.

In assay [7] the target is T3, ActRIIB-Fc homodimer. As to the method:
as §1
The source holds these as a separate data set.

Assay [8] has as its target B1. As to the method: as §1
In assay [9] the target is T3, ActRIIB-Fc homodimer. As to the method:
as §1
The source holds these as a separate data set.

Assay [10] addresses T3, ActRIIB-Fc homodimer. As to the method: as §1
This is another data set of the same source.

Assay [11] has as its target T5, BMPRII-Fc homodimer (UniProt Q13873 27-150).
T5 construct: extracellular domain
T5 sequence (looked up): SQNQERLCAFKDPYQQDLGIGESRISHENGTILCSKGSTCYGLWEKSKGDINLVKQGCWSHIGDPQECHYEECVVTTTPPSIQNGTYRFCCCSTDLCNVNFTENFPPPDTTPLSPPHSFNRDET
As to the method:
A Biacore™-based binding assay was used to compare ligand binding selectivity of the BMPRII-Fc:ALK2-Fc heterodimeric complex described above with that of BMPRII-Fc and ALK2-Fc homodimeric complexes. […] Ligands were injected and allowed to flow over the captured receptor protein.

Assay [12] concerns the target T5, BMPRII-Fc homodimer. As to the method: as §1
This is another data set of the same source.

For assay [13], the target named is T5, BMPRII-Fc homodimer. As to the method: as §1
The source holds these as a separate data set.

The target of assay [14] is B1. As to the method: as §1
This is another data set of the same source.

Assay [15] has as its target T5, BMPRII-Fc homodimer. As to the method: as §1
This is another data set of the same source.

Read-outs that look alike come from different tables or passages of the source.

Usually Kd stands for the concentration at which binding is half-saturated. Lower therefore signals tighter binding. As a reminder, the koff is a measure of how fast the partners let go of each other. Higher therefore signals fast dissociation. In general, kon refers to the rate constant with which the complex forms. The low end stands for slow association, the high end for fast association.

T4 sequence (P27037 20-135): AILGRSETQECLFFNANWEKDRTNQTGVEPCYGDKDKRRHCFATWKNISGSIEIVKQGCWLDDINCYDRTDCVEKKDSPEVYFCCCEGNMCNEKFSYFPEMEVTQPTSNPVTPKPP

With B1, the Kd in the assay with BMP6 [1] is 35000 pM; with BMP5 [2], 70000 pM; in the assay with BMP6 [3], 35000 pM; with BMP5 [4], 70000 pM. Besides, the koff stood at 0.0049 s⁻¹ in the assay with BMP6 [1], 0.002 s⁻¹ in the assay with BMP5 [2], 0.0049 s⁻¹ with BMP6 [3] and 0.0023 s⁻¹ in the assay with BMP5 [4]. In addition, the kon with BMP6 [1] came to 140000 M⁻¹ s⁻¹; in the assay with BMP5 [2], 29000 M⁻¹ s⁻¹; in the assay with BMP6 [3], 140000 M⁻¹ s⁻¹; in the assay with BMP5 [4], 29000 M⁻¹ s⁻¹.

B2: GDF3 (ligand, UniProt Q9NR23 251-364, looked up)
chain: AAIPVPKLSCKNLCHRHQLFINFRDLGWHKWIIAPKGFMANYCHGECPFSLTISLNSSNYAFMQALMHAVDPEIPQAVCIPTKLSPISMLYQDNNDNVILRHYEDMVVDECGCG
Turning to B2, the Kd with ActRIIB-Fc homodimer [5] was 1500 pM; with ActRIIA-Fc homodimer, 2400 pM; in the assay with ActRIIB-Fc homodimer [6], 3900 pM; in the assay with ActRIIB-Fc homodimer [7] it was 1400 pM; with ActRIIB-Fc homodimer [9], 1700 pM; in the assay with ActRIIB-Fc homodimer [10], 1500 pM. Further, the koff with ActRIIB-Fc homodimer [5] came out at 0.0022 s⁻¹; in the assay with ActRIIA-Fc homodimer it was 0.0036 s⁻¹; with ActRIIB-Fc homodimer [6], 0.0018 s⁻¹; with ActRIIB-Fc homodimer [7] it was 0.0023 s⁻¹; with ActRIIB-Fc homodimer [9], 0.002 s⁻¹; with ActRIIB-Fc homodimer [10] it was 0.0022 s⁻¹. Besides, the kon with ActRIIB-Fc homodimer [5] amounted to 1.4e+06 M⁻¹ s⁻¹; in the assay with ActRIIA-Fc homodimer it was 1.5e+06 M⁻¹ s⁻¹; with ActRIIB-Fc homodimer [6], 470000 M⁻¹ s⁻¹; with ActRIIB-Fc homodimer [7], 1.6e+06 M⁻¹ s⁻¹; with ActRIIB-Fc homodimer [9], 1.2e+06 M⁻¹ s⁻¹; with ActRIIB-Fc homodimer [10], 1.4e+06 M⁻¹ s⁻¹. Also, the binding result with ALK3-Fc homodimer [8] was “no binding”.

B3: GDF11 (ligand, UniProt O95390 299-407, looked up)
chain: NLGLDCDEHSSESRCCRYPLTVDFEAFGWDWIIAPKRYKANYCSGQCEYMFMQKYPHTHLVQQANPRGSAGPCCTPTKMSPINMLYFNDKQQIIYGKIPGMVVDRCGCS
notes: also called BMP11
Take B3: the Kd with ActRIIB-Fc homodimer [5] came out at 2 pM; in the assay with ActRIIA-Fc homodimer it was 13 pM; with ActRIIB-Fc homodimer [6], 74 pM; in the assay with ActRIIB-Fc homodimer [7], 2 pM; with ActRIIB-Fc homodimer [9], 110 pM; with ActRIIB-Fc homodimer [10], 2 pM. For the same molecule, the koff stood at 0.00015 s⁻¹ in the assay with ActRIIB-Fc homodimer [5]; 0.00092 s⁻¹ in the assay with ActRIIA-Fc homodimer; 0.00014 s⁻¹ with ActRIIB-Fc homodimer [6]; 0.00011 s⁻¹ in the assay with ActRIIB-Fc homodimer [7]; 0.00022 s⁻¹ in the assay with ActRIIB-Fc homodimer [9]; 0.00011 s⁻¹ with ActRIIB-Fc homodimer [10]. For the same molecule, the kon was determined as 9.6e+07 M⁻¹ s⁻¹ in the assay with ActRIIB-Fc homodimer [5]; 7.3e+07 M⁻¹ s⁻¹ in the assay with ActRIIA-Fc homodimer; 1.9e+06 M⁻¹ s⁻¹ with ActRIIB-Fc homodimer [6]; 5e+07 M⁻¹ s⁻¹ in the assay with ActRIIB-Fc homodimer [7]; 2e+06 M⁻¹ s⁻¹ with ActRIIB-Fc homodimer [9]; 5e+07 M⁻¹ s⁻¹ in the assay with ActRIIB-Fc homodimer [10]. Moreover, the binding result with ALK3-Fc homodimer [8] was “no binding”.

B4: activin B (ligand, UniProt P09529 293-407, looked up)
chain: GLECDGRTNLCCRQQFFIDFRLIGWNDWIIAPTGYYGNYCEGSCPAYLAGVPGSASSFHTAVVNQYRMRGLNPGTVNSCCIPTKLSTMSMLYFDDEYNIVKRDVPNMIVEECGCA
On to B4, for which the Kd in the assay with ActRIIB-Fc homodimer [5] was found to be 8 pM; with ActRIIA-Fc homodimer, 10 pM; in the assay with ActRIIB-Fc homodimer [6], 20 pM; with ActRIIB-Fc homodimer [7], 20 pM; with ActRIIB-Fc homodimer [9], 28 pM; with BMPRII-Fc homodimer [11], 2600 pM. For the same molecule, the Kd with BMPRII-Fc homodimer [12] came out at 3800 pM; in the assay with ActRIIB-Fc homodimer [10], 20 pM; with BMPRII-Fc homodimer [13] it was 3800 pM. The dissociation rate constant (koff) with ActRIIB-Fc homodimer [5] is 0.00016 s⁻¹; in the assay with ActRIIA-Fc homodimer it was 0.00011 s⁻¹; in the assay with ActRIIB-Fc homodimer [6], 0.0001 s⁻¹; with ActRIIB-Fc homodimer [7] it was 0.0001 s⁻¹; with ActRIIB-Fc homodimer [9] it was 0.00011 s⁻¹; with BMPRII-Fc homodimer [11], 0.0049 s⁻¹. Besides, the koff came out at 0.075 s⁻¹ in the assay with BMPRII-Fc homodimer [12], 0.0001 s⁻¹ in the assay with ActRIIB-Fc homodimer [10] and 0.075 s⁻¹ with BMPRII-Fc homodimer [13]. The kon with ActRIIB-Fc homodimer [5] worked out at 1.5e+07 M⁻¹ s⁻¹; with ActRIIA-Fc homodimer it was 1.1e+07 M⁻¹ s⁻¹; with ActRIIB-Fc homodimer [6], 5.1e+06 M⁻¹ s⁻¹; in the assay with ActRIIB-Fc homodimer [7] it was 5.1e+06 M⁻¹ s⁻¹; in the assay with ActRIIB-Fc homodimer [9] it was 3.8e+06 M⁻¹ s⁻¹; with BMPRII-Fc homodimer [11], 1.9e+06 M⁻¹ s⁻¹. The kon came to 2e+07 M⁻¹ s⁻¹ in the assay with BMPRII-Fc homodimer [12], 5.1e+06 M⁻¹ s⁻¹ with ActRIIB-Fc homodimer [10] and 2e+07 M⁻¹ s⁻¹ with BMPRII-Fc homodimer [13]. Moreover, the binding result with ALK3-Fc homodimer [8] was “no binding”.

B5: GDF5 (ligand, UniProt P43026 382-501, looked up)
chain: APLATRQGKRPSKNLKARCSRKALHVNFKDMGWDDWIIAPLEYEAFHCEGLCEFPLRSHLEPTNHAVIQTLMNSMDPESTPPTCCVPTRLSPISILFIDSANNVVYKQYEDMVVESCGCR
notes: also called BMP14
In the assay with ALK3-Fc homodimer [8], B5 showed a Kd of 22000 pM, a dissociation rate constant (koff) of 0.011 s⁻¹ and a kon of 480000 M⁻¹ s⁻¹. In the assay with ALK3-Fc homodimer [14], binding was put at a Kd of 22000 pM, the dissociation rate constant (koff) worked out at 0.011 s⁻¹ and the on-rate constant (kon) turned out to be 430000 M⁻¹ s⁻¹.

B6: BMP10 (ligand, UniProt O95393 317-424, looked up)
chain: NAKGNYCKRTPLYIDFKEIGWDSWIIAPPGYEAYECRGVCNYPLAEHLTPTKHAIIQALVHLKNSQKASKACCVPTKLEPISILYLDKGVVTYKFKYEGMAVSECGCR
B6: the dissociation constant Kd with ActRIIB-Fc homodimer [5] was found to be 25 pM; in the assay with ActRIIA-Fc homodimer it was 85 pM; in the assay with ActRIIB-Fc homodimer [6], 18 pM; with ActRIIB-Fc homodimer [7], 4 pM; in the assay with ActRIIB-Fc homodimer [9] it was 5 pM; with BMPRII-Fc homodimer [11], 130 pM. Besides, the Kd in the assay with BMPRII-Fc homodimer [12] is 100 pM; in the assay with BMPRII-Fc homodimer [15] it was 100 pM; with ActRIIB-Fc homodimer [10], 11 pM; in the assay with BMPRII-Fc homodimer [13] it was 100 pM. In addition, the koff turned out to be 0.00015 s⁻¹ in the assay with ActRIIB-Fc homodimer [5]; 0.0025 s⁻¹ with ActRIIA-Fc homodimer; 0.00038 s⁻¹ in the assay with ActRIIB-Fc homodimer [6]; 0.0002 s⁻¹ with ActRIIB-Fc homodimer [7]; 0.00028 s⁻¹ with ActRIIB-Fc homodimer [9]; 0.005 s⁻¹ in the assay with BMPRII-Fc homodimer [11]. Moreover, the koff with BMPRII-Fc homodimer [12] was 0.0025 s⁻¹; with BMPRII-Fc homodimer [15], 0.0025 s⁻¹; with ActRIIB-Fc homodimer [10], 0.00026 s⁻¹; with BMPRII-Fc homodimer [13], 0.0025 s⁻¹. Further, the on-rate constant (kon) with ActRIIB-Fc homodimer [5] worked out at 5.9e+06 M⁻¹ s⁻¹; in the assay with ActRIIA-Fc homodimer it was 2.9e+07 M⁻¹ s⁻¹; with ActRIIB-Fc homodimer [6], 2.1e+07 M⁻¹ s⁻¹; with ActRIIB-Fc homodimer [7] it was 5.9e+07 M⁻¹ s⁻¹; with ActRIIB-Fc homodimer [9] it was 5.4e+07 M⁻¹ s⁻¹; in the assay with BMPRII-Fc homodimer [11], 3.8e+07 M⁻¹ s⁻¹. The on-rate (kon) with BMPRII-Fc homodimer [12] is 2.6e+07 M⁻¹ s⁻¹; with BMPRII-Fc homodimer [15], 2.6e+07 M⁻¹ s⁻¹; with ActRIIB-Fc homodimer [10] it was 2.3e+07 M⁻¹ s⁻¹; with BMPRII-Fc homodimer [13], 2.6e+07 M⁻¹ s⁻¹. The binding result with ALK3-Fc homodimer [8] is given as “no binding”.
